# From patent publication US20210355235A1, “Compositions and Methods For Treating Cancer with Anti-Renalase antibodies and Anti-PD1 antibodies” (YALE UNIVERSITY, priority 2017, published 2021)
# Tested on: YUMM mouse melanoma tumor
# Test: anti-PD1 resistant YUMM melanoma engrafted into immunocompetent C57B6 mice
# Type: in vivo
# Details: qPCR
# Protocol: Experiments were conducted to assess the synergism between anti-RNLS antibody and anti-PD1 antibody against a tumor cell line that is resistant to anti-PD1 agents (i.e., YUMM) (FIG. 35). The anti-PD1 resistant mouse melanoma cell line (YUMM) was engrafted into immunocompetent C57B6 mice. After the engrafted YUMM tumor volume reached about 100 mm^3 (i.e., day 0), treatments were administered on days 0, 7, 9, and 12, as indicated by the arrows on […].
# Experiments were conducted to measure PD1 and PD-L1 mRNA expression by qPCR in unfractioned tumor mass after treatment with anti-RNLS antibody (m28) alone, anti-PD1 antibody alone, and the combination of anti-RNLS antibody (m28) and anti-PD1 antibody (FIG. 36).
# Experiments were conducted to measure CD8a mRNA expression by qPCR in unfractioned tumor mass after treatment with anti-RNLS antibody (m28) alone, anti-PD1 antibody alone, and the combination of anti-RNLS antibody (m28) and anti-PD1 antibody.
molecule,measurement,value
"m28-RNLS: rabbit anti-renalase monoclonal raised against RNLS peptide RP-220; heavy chain SEQ ID NO:9, light chain SEQ ID NO:10 (antibody, 1D-28-4 full length heavy chain amino acid; 1D-28-4 full length light chain amino acid) heavy: METGLRWLLLVAVLKGVQCQSVEESGGRLVTPGTPLTLTCTVSGFSLSSFAVGWVRQAPGKGLEYIGIISSVGITRYASWAAGRFTISKTSTTVDLKITSPTTEDTATYFCARYGYSGDVNRLDLWGQGTLVTVSSGQPKAPSVFPLAPCCGDTPSSTVTLGCLVKGYLPEPVTVTWNSGTLTNGVRTFPSVRQSSGLYSLSSVVSVTSSSQPVTCNVAHPATNTKVDKTVAPSTCSKPTCPPPELLGGPSVFIFPPKPKDTLMISRTPEVTCVVVDVSQDDPEVQFTWYINNEQVRTARPPLREQQFNSTIRVVSTLPIAHQDWLRGKEFKCKVHNKALPAPIEKTISKARGQPLEPKVYTMGPPREELSSRSVSLTCMINGFYPSDISVEWEKNGKAEDNYKTTPAVLDSDGSYFLYSKLSVPTSEWQRGDVFTCSVMHEALHNHYTQKSISRSPGK light: MDTRAPTQLLGLLLLWLPGATFAQVLTQTASPVSAAVGGTVTINCQASQSVYDNNNLAWYQQKPGQPPKQLIYGASTLASGVSSRFKGSGSGTQFTLTISGVQCDDAATYYCLGEFSCSSADCFAFGGGTEVVVKGDPVAPTVLIFPPSADLVATGTVTIVCVANKYFPDVTVTWEVDGTTQTTGIENSKTPQNSADCTYNLSSTLTLTSTQYNSHKEYTCKVTQGTTSVVQSFNRGDC",CD8a mRNA expression in unfractioned tumor mass (cytotoxic T cells),activates cytotoxic T cells
